Laboratory results: patent US8034904B2, “Anti-IGF-I receptor antibody” (Immunogen Inc., priority 2002, dated 2011)

Experiments:
IGF-I receptor [1] = biological target: T1, IGF-I receptor (Homo sapiens, UniProt P08069); assay: IGF-I-stimulated autophosphorylation of IGF-I receptor in MCF-7 cells (ELISA); format: cell-based; settings: 20 μg/mL antibody 3 h; 50 ng/mL IGF-I 20 min
T1 construct: human breast cancer MCF-7 cells, which expressed IGF-I receptor; endogenous in cells; host or cells: MCF-7 human breast cancer cells
Method: In FIG. 4, the MCF-7 cells were grown in a 12-well plate in regular medium for 3 days, and were then treated with 20 μg/mL EM164 antibody (or anti-B4 control antibody) in serum-free medium for 3 h, followed by stimulation with 50 ng/mL IGF-I for 20 min at 37° C. The cells were then lysed in ice-cold lysis buffer containing protease and phosphatase inhibitors (50 mM HEPES buffer, pH 7.4, 1% NP-40, 1 mM sodium orthovanadate, 100 mM sodium fluoride, 10 mM sodium pyrophosphate, 2.5 mM EDTA, 10 μM leupeptin, 5 μM pepstatin, 1 mM PMSF, 5 mM benzamidine, and 5 μg/mL aprotinin). An ELISA plate was pre-coated with anti-IGF-I receptor beta chain C-terminus monoclonal antibody TC123 and was incubated with the lysate samples for 5 h at ambient temperature to capture IGF-I receptor. The wells containing the captured IGF-I receptor were then washed and incubated with biotinylated anti-phosphotyrosine antibody (PY20; 0.25 μg/mL; BD Transduction Laboratories) for 30 min, followed by washes and incubation with streptavidin-horseradish peroxidase conjugate (0.8 μg/mL) for 30 min. The wells were washed and detected with ABTS/H2O2 substrate.

[2] = tested on: insulin receptor substrate-1 (IRS-1); assay: IGF-I-stimulated IRS-1 phosphorylation in MCF-7 cells (ELISA, associated p85 PI-3-kinase); format: cell-based, human
Method: In FIG. 5, MCF-7 cells were treated with 5 μg/mL antibody (EM164 or IR3) in serum-free medium for 2 h, followed by stimulation with 50 ng/mL IGF-I for 10 min at 37° C. Anti-IRS-1 antibody (rabbit polyclonal; Upstate Biotechnology) was indirectly captured by incubation with coated goat-anti-rabbit-IgG antibody on an ELISA plate, which was then used to capture IRS-1 from the cell lysate samples by overnight incubation at 4° C. The wells were then incubated with mouse monoclonal anti-p85-PI-3-kinase antibody (Upstate Biotechnology) for 4 h, followed by treatment with goat-anti-mouse-IgG-antibody-HRP conjugate for 30 min. The wells were then washed and detected using ABTS/H2O2 substrate (FIG. 5).

A 549 cells = assay: Growth and survival of A 549 cells (MTT assay); format: cell-based, human; settings: 5-10 μg/mL EM164, 10 ng/mL IGF-I
Method: Several human tumor cell lines were tested in serum-free conditions for their growth and survival response to IGF-I. These cell lines were treated with EM164 antibody in the presence of IGF-I, IGF-II, or serum, and their growth and survival responses were measured using an MTT assay after 2-4 days. Approximately 1500 cells were plated in a 96-well plate in regular medium with serum, which was replaced with serum-free medium the following day (either serum-free RPMI medium supplemented with transferrin and BSA, or phenol-red free medium as specified by Dufourny, B. et al., 1997, J. Biol. Chem., 272, 31163-31171). After one day of growth in serum-free medium, the cells were incubated with about 75 μL of 10 μg/mL antibody for 30 min.-3 h, followed by the addition of 25 μL of IGF-I (or IGF-II or serum) solution to obtain a final concentration of 10 ng/mL IGF-I, or 20 ng/mL IGF-II, or 0.04-10% serum. In some experiments, the cells were stimulated first with IGF-I for 15 min before the addition of EM164 antibody, or both IGF-I and EM164 antibody were added together. The cells were then allowed to grow for another 2-3 days. […] The medium was then removed and replaced by 100 μL DMSO, mixed, and the absorbance of the plate was measured at 545 nm.

A 375 (melanoma) cells = assay: Growth and survival of A 375 cells (MTT assay); format: cell-based, human
Method: (§1) Several human tumor cell lines were tested in serum-free conditions for their growth and survival response to IGF-I. These cell lines were treated with EM164 antibody in the presence of IGF-I, IGF-II, or serum, and their growth and survival responses were measured using an MTT assay after 2-4 days. Approximately 1500 cells were plated in a 96-well plate in regular medium with serum, which was replaced with serum-free medium the following day (either serum-free RPMI medium supplemented with transferrin and BSA, or phenol-red free medium as specified by Dufourny, B. et al., 1997, J. Biol. Chem., 272, 31163-31171). After one day of growth in serum-free medium, the cells were incubated with about 75 μL of 10 μg/mL antibody for 30 min.-3 h, followed by the addition of 25 μL of IGF-I (or IGF-II or serum) solution to obtain a final concentration of 10 ng/mL IGF-I, or 20 ng/mL IGF-II, or 0.04-10% serum. In some experiments, the cells were stimulated first with IGF-I for 15 min before the addition of EM164 antibody, or both IGF-I and EM164 antibody were added together. The cells were then allowed to grow for another 2-3 days. A solution of MTT (3-(4,5)-dimethylthiazol-2-yl)-2,5-diphenyltetrazolium bromide; 25 μL of a 5 mg/mL solution in PBS) was then added and the cells were returned to the incubator for 2-3 h. The medium was then removed and replaced by 100 μL DMSO, mixed, and the absorbance of the plate was measured at 545 nm.

[3] = tested on: IGF-I receptor of CHO cells; assay: Immunoprecipitation of IGF-I receptor from CHO cells; format: binding; settings: CHO cells (Chinese hamster)
From the text: (§2) A Western blot of the EM164 antibody immunoprecipitate was detected using a rabbit polyclonal anti-IGF-I receptor beta chain (C-terminus) antibody (Santa Cruz Biotechnology) and a goat-anti-rabbit-IgG-antibody-horseradish peroxidase conjugate, followed by washes and enhanced chemiluminescence (ECL) detection.

[4] = biological target: T2, IGF-I receptor on NCI-H838 cells (Homo sapiens, UniProt P08069); assay: IGF-I displacement in NCI-H838 lung cancer cells; format: cell-based; settings: 4° C., 2 h
T2 construct: endogenous in cells; host or cells: NCI-H838 lung cancer cells
Method: (§3) (or at 4° C.) for 1 to 2 h. […] (or at 4° C.) for 30 min to 4 h. Cells were then washed with PBS and lysed in lysis buffer containing 1% NP-40 at 4° C.

[5] = tested on: NCI-H838 lung cancer cells; assay: Apoptosis: caspase-cleaved cytokeratin CK18 in NCI-H838 cells; format: cell-based, human; settings: IGF-I or serum, presence vs absence of EM164, 1 day
Method: For measurement of apoptosis, cleavage of the cytokeratin CK18 protein by caspase was measured in NCI-H838 lung cancer cells incubated with IGF-I or serum in the presence or absence of EM164 for 1 day (FIG. 26).

HT-29 colon cancer cells = assay: Growth and survival of HT-29 cells (MTT assay, colony formation); format: cell-based, human
Method: as §1

[6] = biological target: T3, IGF-I receptor on MCF-7 cells (Homo sapiens, UniProt P08069); assay: IGF-I displacement assay in MCF-7 cells; format: cell-based
T3 construct: human breast cancer MCF-7 cells, which expressed IGF-I receptor; endogenous in cells; host or cells: MCF-7 human breast cancer cells
Method: as §3

IGF-I receptor [7] = biological target: T1, IGF-I receptor; assay: Downregulation of IGF-I receptor in MCF-7 cells (Western blot); format: cell-based
Method: Therefore, the inhibition of binding of IGF-I and the displacement of bound IGF-I by EM164 antibody at both 4° C. and 37° C. in these short-term experiments may not be explained by the down-regulation of the receptor due to the binding of the EM164 antibody. The mechanism for the potent inhibition of the binding of IGF-I to IGF-I receptor and for the displacement of the pre-bound IGF-I by EM164 antibody is likely to be competition for binding, either through sharing of the binding site or through steric occlusion or through allosteric effects.

[8] = biological target: T4, SDS-denatured human IGF-I receptor (Homo sapiens, UniProt P08069); assay: Western blot detection of SDS-denatured IGF-I receptor in MCF-7 lysates; format: binding; settings: lysates from MCF-7 cells
T4 construct: human breast cancer MCF-7 cells, which expressed IGF-I receptor; endogenous in cells; host or cells: MCF-7 human breast cancer cells
From the text: as §2

B1: EM164: murine anti-IGF-I receptor monoclonal antibody, IgG1 with kappa light chain, hybridoma ATCC PTA-4457; heavy SEQ ID NO:7, light SEQ ID NO:8 (antibody)
heavy: QVQLQQSGAELVKPGASVKLSCKASGYTFTSYWMHWVKQRPGQGLEWIGEINPSNGRTNYNEKFKRKATLTVDKSSSTAYMQLSSLTSEDSAVYYFARGRPDYYGSSKWYFDVWGAGTTVTVSS
light: DVLMTQTPLSLPVSLGDQASISCRSSQSIVHSNVNTYLEWYLQKPGQSPKLLIYKVSNRFSGVPDRFSGSGSGTDFTLRISRVEAEDLGIYYCFQGSHVPPTFGGGTKLEIKR
modifications: antibody heavy chain; antibody light chain
- inhibition of the IGF-I stimulated autophosphorylation of IGF-I receptor (IGF-I receptor [1]): complete inhibition
- inhibition of IGF-1-stimulated IRS-1 phosphorylation ([2]; 5 μg/mL antibody 2 h, 50 ng/mL IGF-I 10 min, compared with IR3): more effective
- agonistic activity on IRS-1 phosphorylation ([2]; in the absence of IGF-I): did not show any agonistic activity
- Inhibition by EM164 antibody of IGF-I-stimulated growth in serum-free medium (A 549 cells): 80%
- Inhibition by EM164 antibody of IGF-I-stimulated growth in serum-free medium (A 375 (melanoma) cells; 5-10 μg/mL EM164, 10 ng/mL IGF-I): 90%
- % Inhibition by EM164 antibody of Growth/survival of cells in 1.25-10% serum (A 375 (melanoma) cells; 5-10 μg/mL EM164, MTT or colony formation assay): No
- binding to IGF-I receptor (immunoprecipitation) [3]: did not bind
- decrease in the bound biotin-IGF-I [4]: 80%
- caspase-cleaved CK18 levels [5]: greater cleaved CK18 levels
- colony size of HT29 colon cancer cells (HT-29 colon cancer cells): greatly reduced
- Inhibition by EM164 antibody of IGF-I-stimulated growth in serum-free medium (HT-29 colon cancer cells; HT-29, 5-10 μg/mL EM164, 10 ng/mL IGF-I): 60%
- % Inhibition by EM164 antibody of Growth/survival of cells in 1.25-10% serum (HT-29 colon cancer cells; HT-29, 5-10 μg/mL EM164, MTT or colony formation assay): Yes
- displacement of pre-bound biotinylated IGF-I ([6]; 4° C., 2 h): about 50%
- displacement of pre-bound biotinylated IGF-I ([6]; 37° C., within 30 min): 90%
- displacement of pre-bound biotinylated IGF-I ([6]; 37° C., within 4 h): ~100%
- downregulation of the IGF-I receptor (IGF-I receptor [7]; 4° C. for 2 h (or 37° C. for 30 min)): did not result in a significant downregulation
- downregulation of the IGF-I receptor (IGF-I receptor [7]; 37° C. for 2 h): 25%
- detection of SDS-denatured human IGF-I receptor in Western blots [8]: did not detect
